{
  "source": "the RNAGym collection of RNA variant scans (doi:10.7554/elife.90254)",
  "parents": {"B1": {"name": "LINE1-mini (parent)", "chain": "GGCAGAGCUCAACACAGCGUGGCAAAGUGGCUGUGGCUAGACUGCC"}},
  "data": [
    {"variants_of": "B1", "assay": "self-cleavage, relative activity (ratio to wild type); higher = more cleavage; in vitro, sequencing; the parent is a self-cleaving ribozyme", "values": [
      {"variant": "AGCAGAGCUCAACACAGCGCGGCAAAGUGGCUGUGGCUAGACUGCC", "self-cleavage": 0.33},
      {"variant": "AGCAGAGCUCAACACAGCGAGGCAAAGUGGCUGUGGCUAGACUGCC", "self-cleavage": 1.27},
      {"variant": "AGCAGAGCUCAACACAGCGGGGCAAAGUGGCUGUGGCUAGACUGCC", "self-cleavage": 0.58},
      {"variant": "CGCAGAACUCAACACAGCGUGGCAAAGUGGCUGUGGCUAGACUGCC", "self-cleavage": 0.04},
      {"variant": "CGCAGAUCUCAACACAGCGUGGCAAAGUGGCUGUGGCUAGACUGCC", "self-cleavage": 0.03},
      {"variant": "CGCAGACCUCAACACAGCGUGGCAAAGUGGCUGUGGCUAGACUGCC", "self-cleavage": 0.02},
      {"variant": "CGCAGAGCUCAACUCAGCGUGGCAAAGUGGCUGUGGCUAGACUGCC", "self-cleavage": 0.02},
      {"variant": "CGCAGAGCUCAACCCAGCGUGGCAAAGUGGCUGUGGCUAGACUGCC", "self-cleavage": 0.02},
      {"variant": "CGCAGAGCUCAACGCAGCGUGGCAAAGUGGCUGUGGCUAGACUGCC", "self-cleavage": 0.08},
      {"variant": "CCCAGAGCUCAACACAGCGUGGCAAAGUGGCUGUGGCUAGACUGCC", "self-cleavage": 0.15},
      {"variant": "CACAGAGCUCAACACAGCGUGGCAAAGUGGCUGUGGCUAGACUGCC", "self-cleavage": 0.13},
      {"variant": "CUCAGAGCUCAACACAGCGUGGCAAAGUGGCUGUGGCUAGACUGCC", "self-cleavage": 0.08},
      {"variant": "CGCAGAGCUCAACACAGCGUGGCAUAGUGGCUGUGGCUAGACUGCC", "self-cleavage": 0.08},
      {"variant": "CGCAGAGCUCAACACAGCGUGGCAGAGUGGCUGUGGCUAGACUGCC", "self-cleavage": 0.01},
      {"variant": "CGCAGAGCUCAACACAGCGUGGCACAGUGGCUGUGGCUAGACUGCC", "self-cleavage": 0.1},
      {"variant": "AGCAGAGCGCAACACAGCGUGGCAAAGUGGCUGUGGCUAGACUGCC", "self-cleavage": 0.22},
      {"variant": "AGCAGAGCACAACACAGCGUGGCAAAGUGGCUGUGGCUAGACUGCC", "self-cleavage": 0.34},
      {"variant": "AGCAGAGCCCAACACAGCGUGGCAAAGUGGCUGUGGCUAGACUGCC", "self-cleavage": 0.1},
      {"variant": "CGCAGAGCUCAACACAGCGUGACAAAGUGGCUGUGGCUAGACUGCC", "self-cleavage": 0.12},
      {"variant": "CGCAGAGCUCAACACAGCGUGCCAAAGUGGCUGUGGCUAGACUGCC", "self-cleavage": 0.19},
      {"variant": "CGCAGAGCUAAACACAGCGUGGCAAAGUGGCUGUGGCUAGACUGCC", "self-cleavage": 0.02},
      {"variant": "CGCAGAGCUGAACACAGCGUGGCAAAGUGGCUGUGGCUAGACUGCC", "self-cleavage": 0.03},
      {"variant": "CGCAGAGCUUAACACAGCGUGGCAAAGUGGCUGUGGCUAGACUGCC", "self-cleavage": 0.04},
      {"variant": "CGCAGAGCUCAAGACAGCGUGGCAAAGUGGCUGUGGCUAGACUGCC", "self-cleavage": 0.04},
      {"variant": "CGCAGAGCUCAAUACAGCGUGGCAAAGUGGCUGUGGCUAGACUGCC", "self-cleavage": 0.04},
      {"variant": "CGCAGAGCUCAAAACAGCGUGGCAAAGUGGCUGUGGCUAGACUGCC", "self-cleavage": 0.05},
      {"variant": "AGCAGAGCUCAACACAGCGUGGCAAAGUGGCAGUGGCUAGACUGCC", "self-cleavage": 0.09},
      {"variant": "AGCAGAGCUCAACACAGCGUGGCAAAGUGGCGGUGGCUAGACUGCC", "self-cleavage": 0.09},
      {"variant": "AGCAGAGCUCAACACAGCGUGGCAAAGUGGCCGUGGCUAGACUGCC", "self-cleavage": 0.11},
      {"variant": "CGGAGAGCUCAACACAGCGUGGCAAAGUGGCUGUGGCUAGACUGCC", "self-cleavage": 0.1},
      {"variant": "CGUAGAGCUCAACACAGCGUGGCAAAGUGGCUGUGGCUAGACUGCC", "self-cleavage": 0.18},
      {"variant": "CGAAGAGCUCAACACAGCGUGGCAAAGUGGCUGUGGCUAGACUGCC", "self-cleavage": 0.19},
      {"variant": "AGCAGAGCUCAACACAGCGUGGCAAAGUGGCUGUGGCUAGACUUCC", "self-cleavage": 0.91},
      {"variant": "CGCAGAGCUCAACACAGCGUGGCAACGUGGCUGUGGCUAGACUGCC", "self-cleavage": 0.08},
      {"variant": "CGCAGAGCUCAACACAGCGUGGCAAGGUGGCUGUGGCUAGACUGCC", "self-cleavage": 0.09},
      {"variant": "CGCAGAGCUCAACACAGCGUGGCAAUGUGGCUGUGGCUAGACUGCC", "self-cleavage": 0.12},
      {"variant": "CGCAGAGCUCAACACAGCGUGGCAAAGUGGCUGUGGCUAGACUGCG", "self-cleavage": 0.3},
      {"variant": "CGCAGAGCUCAACACAGCGUGGCAAAGUGGCUGUGGCUAGACUGCA", "self-cleavage": 0.28},
      {"variant": "CGCAGAGCUCAACACAGCGUGGCAAAGUGGCUGUGGCUAGACUGCU", "self-cleavage": 0.18},
      {"variant": "CGCAGAGGUCAACACAGCGUGGCAAAGUGGCUGUGGCUAGACUGCC", "self-cleavage": 0.02},
      {"variant": "CGCAGAGAUCAACACAGCGUGGCAAAGUGGCUGUGGCUAGACUGCC", "self-cleavage": 0.06},
      {"variant": "CGCAGAGUUCAACACAGCGUGGCAAAGUGGCUGUGGCUAGACUGCC", "self-cleavage": 0.07},
      {"variant": "CGCAGAGCUCGACACAGCGUGGCAAAGUGGCUGUGGCUAGACUGCC", "self-cleavage": 0.01},
      {"variant": "CGCAGAGCUCCACACAGCGUGGCAAAGUGGCUGUGGCUAGACUGCC", "self-cleavage": 0.01},
      {"variant": "CGCAGAGCUCUACACAGCGUGGCAAAGUGGCUGUGGCUAGACUGCC", "self-cleavage": 0.03},
      {"variant": "CGCAGAGCUCAACAUAGCGUGGCAAAGUGGCUGUGGCUAGACUGCC", "self-cleavage": 0.07},
      {"variant": "CGCAGAGCUCAACAAAGCGUGGCAAAGUGGCUGUGGCUAGACUGCC", "self-cleavage": 0.02},
      {"variant": "CGCAGAGCUCAACAGAGCGUGGCAAAGUGGCUGUGGCUAGACUGCC", "self-cleavage": 0.03},
      {"variant": "CGCAAAGCUCAACACAGCGUGGCAAAGUGGCUGUGGCUAGACUGCC", "self-cleavage": 0.05},
      {"variant": "CGCACAGCUCAACACAGCGUGGCAAAGUGGCUGUGGCUAGACUGCC", "self-cleavage": 0.02},
      {"variant": "CGCAUAGCUCAACACAGCGUGGCAAAGUGGCUGUGGCUAGACUGCC", "self-cleavage": 0.02},
      {"variant": "CGCAGAGCUCAACACAGCGUGGCAAAGUGGCUGUGGCUAGCCUGCC", "self-cleavage": 0.02},
      {"variant": "CGCAGAGCUCAACACAGCGUGGCAAAGUGGCUGUGGCUAGUCUGCC", "self-cleavage": 0.1},
      {"variant": "CGCAGAGCUCAACACAGCGUGGCAAAGUGGCUGUGGCUAGGCUGCC", "self-cleavage": 0.02},
      {"variant": "CGCAGAGCUCAACACAGCGUGGCAAAGUGGCUGUGGCUAGACUGCC", "self-cleavage": 0.13},
      {"variant": "AGCAGAGCUCAACACAGCGUGGCAAAGGGGCUGUGGCUAGACUGCC", "self-cleavage": 0.6}
    ]}
  ]
}
